Laboratory results: the supplement of paper PMC10065799, “High-throughput profiling of sequence recognition by tyrosine kinases and SH2 domains using bacterial peptide display” (eLife, 2023)

Tests used:
AncSZ = test: phosphorylation enrichment, bacterial display (enrichment ratio); higher = better substrate or ligand; peptides without Tyr show the background
EPHB1 = EPHB1 (UniProt P54762); test: as above
EPHB2 = EPHB2 (UniProt P29323); test: as above
FGFR1 = FGFR1 (UniProt P11362); test: as above
Chain of FGFR1 (P11362 whole entry, looked up): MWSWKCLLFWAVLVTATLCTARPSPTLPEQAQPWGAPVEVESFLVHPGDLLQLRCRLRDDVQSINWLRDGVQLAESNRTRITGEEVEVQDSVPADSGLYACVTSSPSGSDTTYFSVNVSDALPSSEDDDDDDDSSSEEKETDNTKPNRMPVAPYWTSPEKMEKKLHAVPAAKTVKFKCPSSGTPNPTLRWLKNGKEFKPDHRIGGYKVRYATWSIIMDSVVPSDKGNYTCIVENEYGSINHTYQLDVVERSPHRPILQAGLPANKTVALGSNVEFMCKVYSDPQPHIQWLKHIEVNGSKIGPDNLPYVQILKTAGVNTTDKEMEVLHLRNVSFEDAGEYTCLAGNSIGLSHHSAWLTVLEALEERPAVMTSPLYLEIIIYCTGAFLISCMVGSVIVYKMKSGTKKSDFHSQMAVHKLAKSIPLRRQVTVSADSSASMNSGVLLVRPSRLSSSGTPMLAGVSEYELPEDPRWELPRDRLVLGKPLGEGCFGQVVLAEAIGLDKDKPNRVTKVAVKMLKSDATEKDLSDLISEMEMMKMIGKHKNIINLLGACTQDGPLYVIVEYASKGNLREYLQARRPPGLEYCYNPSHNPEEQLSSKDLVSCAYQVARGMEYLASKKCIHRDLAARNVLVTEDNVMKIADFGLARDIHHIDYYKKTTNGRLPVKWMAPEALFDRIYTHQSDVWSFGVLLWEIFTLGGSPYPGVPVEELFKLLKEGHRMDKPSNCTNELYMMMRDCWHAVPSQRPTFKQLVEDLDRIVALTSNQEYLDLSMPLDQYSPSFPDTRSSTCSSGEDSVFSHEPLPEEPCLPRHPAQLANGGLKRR

FGFR3 = FGFR3 (UniProt P22607); test: as above
Chain of FGFR3 (P22607 whole entry, looked up): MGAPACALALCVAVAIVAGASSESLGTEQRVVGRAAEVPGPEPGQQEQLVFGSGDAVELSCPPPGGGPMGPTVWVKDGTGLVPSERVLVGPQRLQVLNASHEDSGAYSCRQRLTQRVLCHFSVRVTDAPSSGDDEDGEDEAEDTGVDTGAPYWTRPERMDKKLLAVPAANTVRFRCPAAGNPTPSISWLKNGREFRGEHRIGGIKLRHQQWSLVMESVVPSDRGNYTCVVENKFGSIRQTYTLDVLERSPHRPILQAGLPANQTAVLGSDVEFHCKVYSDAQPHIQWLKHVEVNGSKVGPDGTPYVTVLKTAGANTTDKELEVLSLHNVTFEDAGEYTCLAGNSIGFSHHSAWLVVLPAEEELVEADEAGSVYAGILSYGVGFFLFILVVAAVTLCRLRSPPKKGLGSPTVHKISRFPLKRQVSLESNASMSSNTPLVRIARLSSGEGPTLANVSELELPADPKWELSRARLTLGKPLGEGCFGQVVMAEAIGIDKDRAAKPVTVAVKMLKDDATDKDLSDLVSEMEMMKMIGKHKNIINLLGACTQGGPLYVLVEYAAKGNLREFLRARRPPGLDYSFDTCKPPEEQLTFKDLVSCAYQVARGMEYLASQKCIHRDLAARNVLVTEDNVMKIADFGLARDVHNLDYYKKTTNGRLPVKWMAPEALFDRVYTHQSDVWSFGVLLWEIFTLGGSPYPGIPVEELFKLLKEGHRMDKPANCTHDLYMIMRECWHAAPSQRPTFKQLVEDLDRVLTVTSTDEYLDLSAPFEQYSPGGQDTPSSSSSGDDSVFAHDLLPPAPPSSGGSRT

Fer (mouse) = test: as above
Fes = Fes (UniProt P07332); test: as above
Chain of Fes (P07332 whole entry, looked up): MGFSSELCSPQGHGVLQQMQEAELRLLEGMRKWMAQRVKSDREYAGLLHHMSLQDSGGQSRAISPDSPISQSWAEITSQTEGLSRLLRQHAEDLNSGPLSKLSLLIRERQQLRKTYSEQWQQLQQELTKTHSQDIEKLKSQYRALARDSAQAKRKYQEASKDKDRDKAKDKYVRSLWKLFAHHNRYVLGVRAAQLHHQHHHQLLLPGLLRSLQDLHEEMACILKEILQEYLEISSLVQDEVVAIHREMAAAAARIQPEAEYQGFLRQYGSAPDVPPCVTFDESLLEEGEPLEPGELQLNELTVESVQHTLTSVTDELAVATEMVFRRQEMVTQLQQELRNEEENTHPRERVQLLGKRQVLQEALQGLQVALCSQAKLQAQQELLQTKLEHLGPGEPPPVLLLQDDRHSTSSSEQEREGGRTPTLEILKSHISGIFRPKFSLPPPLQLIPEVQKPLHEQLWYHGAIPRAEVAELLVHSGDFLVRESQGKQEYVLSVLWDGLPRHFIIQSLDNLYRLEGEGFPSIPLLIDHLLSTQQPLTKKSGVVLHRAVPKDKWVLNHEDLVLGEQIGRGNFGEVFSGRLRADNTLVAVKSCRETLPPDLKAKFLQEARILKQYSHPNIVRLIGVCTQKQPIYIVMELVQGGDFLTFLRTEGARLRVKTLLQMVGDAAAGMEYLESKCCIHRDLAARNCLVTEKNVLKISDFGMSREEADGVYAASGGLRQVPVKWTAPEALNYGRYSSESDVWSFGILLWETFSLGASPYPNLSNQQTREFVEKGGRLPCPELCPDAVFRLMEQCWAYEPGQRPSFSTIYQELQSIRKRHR

Fyn = Fyn (UniProt P06241); test: as above
Chain of Fyn (P06241 whole entry, looked up): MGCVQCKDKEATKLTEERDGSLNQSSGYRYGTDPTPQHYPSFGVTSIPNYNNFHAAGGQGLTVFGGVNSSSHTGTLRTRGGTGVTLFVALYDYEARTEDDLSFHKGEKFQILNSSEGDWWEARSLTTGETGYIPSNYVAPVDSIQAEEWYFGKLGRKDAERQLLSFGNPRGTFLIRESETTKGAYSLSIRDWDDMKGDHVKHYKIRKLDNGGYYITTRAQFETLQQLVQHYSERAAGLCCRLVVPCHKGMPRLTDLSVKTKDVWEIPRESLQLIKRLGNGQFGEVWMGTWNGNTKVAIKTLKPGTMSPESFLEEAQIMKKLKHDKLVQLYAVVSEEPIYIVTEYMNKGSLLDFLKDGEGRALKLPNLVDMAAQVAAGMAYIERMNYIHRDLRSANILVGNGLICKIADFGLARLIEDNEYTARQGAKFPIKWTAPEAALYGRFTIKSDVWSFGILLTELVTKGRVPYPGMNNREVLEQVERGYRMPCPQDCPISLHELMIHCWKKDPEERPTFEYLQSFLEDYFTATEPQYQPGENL

Hck = Hck (UniProt P08631); test: as above
Jak2 = Jak2 (UniProt O60674); test: as above
Chain of Jak2 (O60674 whole entry, looked up): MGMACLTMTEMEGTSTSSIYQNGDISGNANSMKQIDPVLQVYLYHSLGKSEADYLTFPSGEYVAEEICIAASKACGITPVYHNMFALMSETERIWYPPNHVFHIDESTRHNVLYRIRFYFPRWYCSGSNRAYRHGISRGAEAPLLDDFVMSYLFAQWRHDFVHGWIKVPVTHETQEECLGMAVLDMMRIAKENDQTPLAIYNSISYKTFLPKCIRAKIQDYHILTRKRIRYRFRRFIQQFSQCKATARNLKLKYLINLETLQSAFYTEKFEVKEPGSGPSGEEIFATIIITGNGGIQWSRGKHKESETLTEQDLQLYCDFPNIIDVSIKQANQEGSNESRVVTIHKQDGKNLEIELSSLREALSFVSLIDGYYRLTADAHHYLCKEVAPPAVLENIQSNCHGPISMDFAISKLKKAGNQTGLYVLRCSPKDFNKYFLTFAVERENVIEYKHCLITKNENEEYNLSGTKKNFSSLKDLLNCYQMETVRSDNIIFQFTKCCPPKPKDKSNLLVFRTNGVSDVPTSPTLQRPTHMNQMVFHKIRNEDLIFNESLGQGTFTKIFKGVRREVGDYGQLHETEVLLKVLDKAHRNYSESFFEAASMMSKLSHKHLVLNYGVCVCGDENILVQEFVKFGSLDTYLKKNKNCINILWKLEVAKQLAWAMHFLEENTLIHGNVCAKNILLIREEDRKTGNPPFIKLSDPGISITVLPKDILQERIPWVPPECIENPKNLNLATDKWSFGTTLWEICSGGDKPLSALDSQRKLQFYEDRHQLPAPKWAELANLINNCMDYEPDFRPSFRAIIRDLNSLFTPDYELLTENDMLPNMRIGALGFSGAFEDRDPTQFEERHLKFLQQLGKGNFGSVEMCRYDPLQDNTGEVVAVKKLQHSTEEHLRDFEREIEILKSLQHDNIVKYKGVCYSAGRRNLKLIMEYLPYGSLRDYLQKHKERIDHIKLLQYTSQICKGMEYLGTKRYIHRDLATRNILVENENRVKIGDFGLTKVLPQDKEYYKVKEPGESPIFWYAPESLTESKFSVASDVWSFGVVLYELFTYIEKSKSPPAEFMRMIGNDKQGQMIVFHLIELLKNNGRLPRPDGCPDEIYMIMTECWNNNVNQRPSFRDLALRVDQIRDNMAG

MERTK = MERTK (UniProt Q12866); test: as above
c-Abl (mouse) = test: as above
c-Src = test: as above
Grb2 SH2 = Grb2 SH2 (UniProt P62993); test: SH2 binding enrichment of the phosphorylated peptide, bacterial display (enrichment ratio); higher = better substrate or ligand; peptides without Tyr show the background
SHP2-C SH2 = test: as above
c-Src SH2 = test: as above
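Wherever SH2 binding enrichment of the phosphorylated peptide, bacterial display is given: peptide library displayed on the E. coli surface as eCPX fusions, selected cells deep-sequenced, score is each peptide's frequency after selection divided by its frequency in the input.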
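Wherever phosphorylation enrichment, bacterial display is given: 11-residue human phosphosite peptides and single-mutation variants displayed on the E. coli surface, counted by deep sequencing, each peptide's frequency after selection divided by its frequency in the unselected input library; frequency after pTyr selection over input frequency; kinase dosed for 20-30% of maximal phosphorylation in three min.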

Chain of EPHB1 (P54762 whole entry, looked up): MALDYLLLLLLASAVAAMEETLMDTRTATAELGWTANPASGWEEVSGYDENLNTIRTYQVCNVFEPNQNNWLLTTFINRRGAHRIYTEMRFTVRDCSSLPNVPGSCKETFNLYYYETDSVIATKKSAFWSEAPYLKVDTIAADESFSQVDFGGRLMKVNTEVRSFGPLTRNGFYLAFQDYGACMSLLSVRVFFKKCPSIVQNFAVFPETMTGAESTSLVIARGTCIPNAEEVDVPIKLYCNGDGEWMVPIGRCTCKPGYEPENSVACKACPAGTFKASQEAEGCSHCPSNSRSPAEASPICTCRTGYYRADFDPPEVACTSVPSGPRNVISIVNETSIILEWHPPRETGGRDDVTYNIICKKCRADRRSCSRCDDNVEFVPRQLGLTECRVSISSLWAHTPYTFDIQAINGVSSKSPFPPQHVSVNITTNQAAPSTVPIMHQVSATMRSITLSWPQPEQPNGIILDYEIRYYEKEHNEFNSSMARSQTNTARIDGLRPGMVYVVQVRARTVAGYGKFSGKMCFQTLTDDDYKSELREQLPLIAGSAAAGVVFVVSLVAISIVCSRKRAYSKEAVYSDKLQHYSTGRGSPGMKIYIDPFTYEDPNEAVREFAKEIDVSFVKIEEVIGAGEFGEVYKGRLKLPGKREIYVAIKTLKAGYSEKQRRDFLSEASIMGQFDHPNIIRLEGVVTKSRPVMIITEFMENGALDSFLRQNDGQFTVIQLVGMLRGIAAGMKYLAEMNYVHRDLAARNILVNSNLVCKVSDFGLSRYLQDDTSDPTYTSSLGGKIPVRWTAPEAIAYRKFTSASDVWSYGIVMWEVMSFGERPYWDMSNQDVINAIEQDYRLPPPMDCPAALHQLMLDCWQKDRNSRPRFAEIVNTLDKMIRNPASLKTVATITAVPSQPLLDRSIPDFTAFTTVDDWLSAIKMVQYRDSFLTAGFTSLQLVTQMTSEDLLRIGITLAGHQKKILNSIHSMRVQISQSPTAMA

Sequence	SH2 binding enrichment (Grb2 SH2)	SH2 binding enrichment (SHP2-C SH2)	SH2 binding enrichment (c-Src SH2)	phosphorylation enrichment (AncSZ)	phosphorylation enrichment (EPHB1)	phosphorylation enrichment (EPHB2)	phosphorylation enrichment (FGFR1)	phosphorylation enrichment (FGFR3)	phosphorylation enrichment (Fer (mouse))	phosphorylation enrichment (Fes)	phosphorylation enrichment (Fyn)	phosphorylation enrichment (Hck)	phosphorylation enrichment (Jak2)	phosphorylation enrichment (MERTK)	phosphorylation enrichment (c-Abl (mouse))	phosphorylation enrichment (c-Src)
DRPASYKKKSM [PDGFRA_Y768]	0.803	0.962	0.412	0.383	0.343	0.367	0.324	0.347	0.306	0.517	0.365	0.39	0.494	0.418	0.546	0.409
FLAVGYHKPYI [IDS_Y225_H229Y]	0.98	1.14	1.51	0.654	0.591	0.441	0.446	0.512	0.554	1.16	0.46	0.399	1.02	0.441	1.16	0.348
EFGEVYKGMLK [EPHA2_Y628]	1.11	0.838	0.553	0.503	0.343	0.441	0.439	0.526	0.411	0.579	0.422	0.454	0.394	0.367	0.377	0.481
LRRFIYRPPDQ [OTOF_Y1231_R1236Q]	0.595	0.391	0.359	0.675	0.409	0.606	0.443	0.397	0.445	0.606	0.479	0.493	0.502	0.516	0.333	0.318
TRSYDYMEGGD [FGF7_Y58]	0.871	0.538	6.41	1.02	0.58	0.593	0.486	0.731	0.456	1.03	0.458	0.488	0.802	0.45	0.586	0.447
GVYSRYFTTYD [CLCA1_Y661]	0.944	1.27	1.06	1.35	1.12	1.25	0.571	0.729	0.573	1	4.58	3.33	1.07	3.71	0.955	4.77
KLQKKYGPIFS [CYP17A1_Y60_YF]	0.882	0.754	0.461	0.555	0.377	0.39	0.308	0.415	0.324	0.503	0.38	0.383	0.583	0.39	0.505	0.489
CQAHGYFCQPI [STK11_Y156_L160P]	1.15	0.812	0.907	0.867	0.35	0.436	0.646	0.538	0.362	0.678	0.329	0.357	0.615	0.407	0.783	0.404
TDRNLYSKNLV [CFAP58_Y501_S496T]	0.769	0.559	0.408	0.564	0.555	0.56	0.505	0.531	1.35	0.737	0.465	0.654	0.758	0.959	0.66	0.627
KRISCYEARYQ [PFKFB3_Y194_S197R]	0.915	0.682	0.591	0.708	0.466	0.415	0.392	0.523	0.4	0.746	0.479	0.388	0.735	0.357	0.526	0.365
DENRFYTRAAS [RPS19_Y54_W52R]	1.11	0.789	0.876	1.01	0.497	0.478	0.515	0.644	0.478	0.907	0.488	0.466	0.721	0.45	0.684	0.494
GINDDYGQLKN [NBN_Y679]	0.92	1.42	0.494	0.841	0.364	0.514	0.499	0.61	0.474	1.1	0.528	0.874	0.829	0.296	0.499	0.613
VSYDEYRYRSF [CFTR_Y515_V520F]	0.72	0.717	0.676	0.89	0.69	0.467	0.486	0.606	0.435	0.951	0.548	0.598	0.983	0.522	0.916	0.939
PLDGEHFTLQI [TP53_Y327_Y327H]	0.644	2.55	0.451	1.62	0.577	0.632	0.587	0.885	0.646	1.87	0.668	0.786	1.43	0.465	1.19	0.605
LTSKPYAFTAR [NDUFS1_Y236]	0.684	0.767	0.533	0.663	0.617	1.08	0.67	1.36	0.591	1.1	0.722	0.58	0.398	0.649	0.453	0.534
TLCLCYKETEE [ATP8B1_Y658_I661T]	0.783	0.672	0.496	1.42	0.879	0.749	0.573	0.903	0.737	1.64	0.708	0.647	1.53	0.483	1.29	0.617
PEADKYHLTYA [FGG_Y300_R301H]	0.561	0.704	0.655	0.685	0.51	0.592	0.665	0.771	0.282	0.985	0.608	0.701	0.908	0.742	1.15	0.915

The next lines start with results.

SH2 binding enrichment (Grb2 SH2)	SH2 binding enrichment (SHP2-C SH2)	SH2 binding enrichment (c-Src SH2)	Sequence	phosphorylation enrichment (AncSZ)	phosphorylation enrichment (EPHB1)	phosphorylation enrichment (EPHB2)	phosphorylation enrichment (FGFR1)	phosphorylation enrichment (FGFR3)	phosphorylation enrichment (Fer (mouse))	phosphorylation enrichment (Fes)	phosphorylation enrichment (Fyn)	phosphorylation enrichment (Hck)	phosphorylation enrichment (Jak2)	phosphorylation enrichment (MERTK)	phosphorylation enrichment (c-Abl (mouse))	phosphorylation enrichment (c-Src)
0.845	0.592	0.564	CKLVDYDSARH [BIN1_Y150_R145C]	0.777	0.505	0.447	0.395	0.624	0.401	0.909	0.463	0.414	0.66	0.381	0.61	0.372
0.788	0.537	0.449	TLRKTYGEMAD [ALB_Y108_E106K]	0.535	0.307	0.355	0.508	0.51	0.379	0.709	0.387	0.433	0.752	0.381	0.462	0.419
0.746	0.6	0.414	ENELTYFCFKK [CD59_Y86_C89Y_YF]	1.71	0.796	0.667	1.06	1.29	0.541	1.57	4.33	3.63	2.43	1.16	3.38	4.58
0.864	0.812	0.735	MVIPNYSSWTE [UROC1_Y185_R188W]	1.31	11.1	13.5	1.11	1.07	1.78	1.23	0.689	0.862	1.16	3.74	0.999	0.719
1.08	0.586	0.744	SKDQICPMKLK [RANBP17_Y823_Y823C]	0.825	0.385	0.565	0.595	0.643	0.614	0.781	0.599	0.573	0.746	0.553	0.632	0.505
0.733	0.628	0.338	RKKLFYKADGE [SERPINC1_Y272_E269K]	0.624	0.34	0.579	0.528	0.473	0.587	0.648	0.621	0.657	0.732	0.531	0.894	0.778
4.8	1.22	5.64	KGPGEYVNIEF [IRS1_Y896_S892G]	0.958	0.708	0.639	1.43	1.14	0.475	0.79	0.58	0.498	0.691	0.442	0.493	0.484
0.919	0.924	0.504	NPQKPYFIRLF [WAS_Y83_S82P_YF]	1.17	0.633	0.579	0.511	0.637	0.457	1	0.438	0.479	0.878	0.423	0.423	0.373
0.82	0.93	0.441	AEPPDYSPVTQ [ADGRG2_Y285_H290Q]	1.46	0.435	0.626	0.514	0.717	0.546	1.16	0.444	0.557	0.95	0.342	0.99	0.522
0.837	0.609	0.439	MSPPGYKLVNG [GJA1_Y286_T290N]	0.429	0.403	0.38	0.58	0.438	0.315	0.561	0.412	0.448	0.564	0.412	0.52	0.461
0.716	0.557	0.53	SGDITYGQFAQ [PLCG1_Y210]	0.596	0.47	0.4	0.426	0.422	0.387	0.632	8.52	4.63	0.796	0.362	0.495	5.78
0.975	0.761	0.795	SETDDYAEIIV [PTK2_Y397_D402V]	1.4	0.83	1.04	1.16	1.2	0.82	1.17	0.519	0.655	1.09	0.524	0.677	0.61
1.67	1.14	1.14	HFPFQYHRQLF [F12_Y53_YF]	0.924	0.618	0.585	0.555	0.694	0.538	0.78	0.466	0.52	0.669	0.507	1.44	0.546
0.787	0.595	0.465	MHDSNSVSKGS [PDGFRA_Y849_Y849S]	0.445	0.282	0.374	0.402	0.329	0.392	0.523	0.381	0.432	0.687	0.448	0.424	0.428
1.07	0.72	0.554	VRFMAYTDEIF [F8_Y450_T454I]	1.21	0.598	0.595	0.608	0.753	0.65	1.21	0.434	0.436	1.07	0.697	1.23	0.434
2.34	2.86	2.04	YIILIYAMKKK [SLCO1B1_Y645]	0.588	0.486	0.348	0.331	0.692	0.399	0.511	0.514	0.53	0.451	0.416	0.426	0.363
